Measured values taken from patent publication US20200140561A1 (BLUEFIN BIOMEDICINE, published 2020).
Positions count from the first letter of the chain named.

Columns and labels:
Test in all cases: cell-based or functional assay
[1] = target: T1, human IL1RAP (human, UniProt Q9NPH3 21-570)
T1 sequence: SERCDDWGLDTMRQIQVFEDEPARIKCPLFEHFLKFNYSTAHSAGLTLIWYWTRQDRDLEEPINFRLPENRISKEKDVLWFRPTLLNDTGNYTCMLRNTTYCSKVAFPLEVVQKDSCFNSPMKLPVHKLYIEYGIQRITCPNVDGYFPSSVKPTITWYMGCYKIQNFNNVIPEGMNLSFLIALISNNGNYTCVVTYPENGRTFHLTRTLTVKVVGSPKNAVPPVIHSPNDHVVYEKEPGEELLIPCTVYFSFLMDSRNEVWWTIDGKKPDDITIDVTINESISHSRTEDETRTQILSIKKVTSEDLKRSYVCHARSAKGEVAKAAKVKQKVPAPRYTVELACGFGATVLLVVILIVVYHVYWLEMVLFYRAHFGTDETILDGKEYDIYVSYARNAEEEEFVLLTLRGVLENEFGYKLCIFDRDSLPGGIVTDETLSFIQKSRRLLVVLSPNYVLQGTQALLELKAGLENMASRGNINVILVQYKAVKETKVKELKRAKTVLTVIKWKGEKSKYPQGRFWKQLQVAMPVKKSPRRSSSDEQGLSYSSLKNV

[2] = target: T1, human IL1RAP; remark: listed apart in the source
[3] = target: T1, human IL1RAP; remark: listed apart in the source
[4] = target: T1, human IL1RAP; remark: listed apart in the source

B1: 36A10_21B6 (antibody, V domains shown)
VH: QGQVVESGGGVVQPGRSLRLSCAASGFTFSSYTLHWVRQAPGKGLEWVAVIWYDGSNKYYVDSVKGRFTISRDNSKNTLYLQMNSLRAEDTAVYYCAREYGSGSYYNVYYGMDVWGQGTTVTLSS
VL: DIVMTQSPLSLPVTPGEPASISCRSSQSLLHSNGYNYLDWYLQKPGQSPHLLIYLASNRASGVPDRFSGSGSGTDFTLKISRVEAEDVGFYYCMQTLQIPLTFGGGTKVEIK
EC50 (inhibition of IL-33 signalling, HEK-Blue IL-33 reporter cells, 0.5 ng/ml IL-33, Abs. 620 nm; partial) [1]: 1.76 nM | EC50 (inhibition of IL-1beta signalling, HEK-Blue IL-1beta reporter cells, 0.5 ng/ml IL-1beta, Abs. 620 nM) [2]: 0.29 nM | EC50 (inhibition of IL-1alpha signalling, HEK-Blue IL-1beta reporter cells, 0.5 ng/ml IL-1a, Abs. 620 nM) [3]: 0.66 nM

B2: 37E10_15B5 (antibody, V domains shown)
VH: QVQLVESGGGVVQPGRSLRLSCAASGFTFRSHGMHWVRQAPGKGLEWVAVIWYDGSSEYYADSVKGRFTISRDNSKNTLYLQMNSLRAEDTAVYYCARENVYGSGWFFDYWGQGTLVTVSS
VL: EIVMTQSPATLSVSPGERASLSCRASQSVGSNLAWYQQRPGQAPRLLIFGASTRATGIPARFSGSRSGTEFTLTISSLQSEDFALYYCQQYNNWPPWTFGQGTKLEIK
EC50 (inhibition of IL-33 signalling, HEK-Blue IL-33 reporter cells, 0.5 ng/ml IL-33, Abs. 620 nm; partial, lower plateau about 0.4) [1]: 0.32 nM | EC50 (inhibition of IL-1beta signalling, HEK-Blue IL-1beta reporter cells, 0.5 ng/ml IL-1beta, Abs. 620 nM) [2]: 0.15 nM | EC50 against IL-1α (IL-1 signaling reporter cell assay) [4]: < 1 nM | EC50 against IL-1β (IL-1 signaling reporter cell assay) [4]: < 1 nM | EC50 (inhibition of IL-1alpha signalling, HEK-Blue IL-1beta reporter cells, 0.5 ng/ml IL-1a, Abs. 620 nM) [3]: 0.19 nM

B3: 44E5_15C5 (antibody, V domains shown)
VH: B2 VH with E58D, Y80F, R87S
VL: B2 VL with R39K
EC50 (inhibition of IL-33 signalling, HEK-Blue IL-33 reporter cells, 0.5 ng/ml IL-33, Abs. 620 nm; partial, lower plateau about 0.4) [1]: 0.44 nM | EC50 (inhibition of IL-1beta signalling, HEK-Blue IL-1beta reporter cells, 0.5 ng/ml IL-1beta, Abs. 620 nM) [2]: 0.17 nM | EC50 against IL-1α (IL-1 signaling reporter cell assay) [4]: < 1 nM | EC50 against IL-1β (IL-1 signaling reporter cell assay) [4]: < 1 nM | EC50 (inhibition of IL-1alpha signalling, HEK-Blue IL-1beta reporter cells, 0.5 ng/ml IL-1a, Abs. 620 nM) [3]: 0.18 nM

B4: 5G8_18A1 (antibody, V domains shown)
VH: QVELQESGPGLVKPSDTLSLTCTVTGGSISTYYWSWIRQPPGKGLEWIGYIFYTGTTNYNPSLKSRVTISVDASKNQFSLKLNSVTAADTAVYYCARDGSLDYWGQGALVTVSS
VL: DIQMTQSPSSLSASVGDRVTITCRASQSISNYLNWYQQKPGKAPKLLIFVASLLQSGVPSRFSGSGSGTDFTLTISSLQPEDFATYYCQQSYSTPFTFGPGTKLEIK
EC50 (inhibition of IL-1beta signalling, HEK-Blue IL-1beta reporter cells, 0.5 ng/ml IL-1beta, Abs. 620 nM) [2]: 0.58 nM | EC50 (inhibition of IL-1alpha signalling, HEK-Blue IL-1beta reporter cells, 0.5 ng/ml IL-1a, Abs. 620 nM) [3]: 0.83 nM

B5: 16H2_17D2 (antibody, V domains shown)
VH: QVQLVESGGGVVQPGGSLRLSCAASGFTFSSHGMHWVRQAPGKGLEWVAVIWYDGSNKFYTDSVQGRFTISRDNSKNTLNLQMNSLRAEDTAVYYCAREGLRAGYYFDFWGQGTLVTVSS
VL: B4 VL with S28R, N31F, L33S, F49Y, V50A, L53S, Y87F, Y92H, F96L, P100G
EC50 (inhibition of IL-1beta signalling, HEK-Blue IL-1beta reporter cells, 0.5 ng/ml IL-1beta, Abs. 620 nM) [2]: 0.1 nM | EC50 (inhibition of IL-1alpha signalling, HEK-Blue IL-1beta reporter cells, 0.5 ng/ml IL-1a, Abs. 620 nM) [3]: 0.09 nM
